The values that follow come from publication PMC12933331, “A Cryptic Pocket Allosterically Modulates Oligosaccharide Binding to DC-SIGN” (JACS Au, 2026).

One series concerns the target T1, DC-SIGN ECD M270F (Homo sapiens, UniProt Q9NNX6, M270F).
T1 construct: acids 64 -404 of DC -SIGN; made in house
T1 sequence (Q9NNX6 64-404 M270F): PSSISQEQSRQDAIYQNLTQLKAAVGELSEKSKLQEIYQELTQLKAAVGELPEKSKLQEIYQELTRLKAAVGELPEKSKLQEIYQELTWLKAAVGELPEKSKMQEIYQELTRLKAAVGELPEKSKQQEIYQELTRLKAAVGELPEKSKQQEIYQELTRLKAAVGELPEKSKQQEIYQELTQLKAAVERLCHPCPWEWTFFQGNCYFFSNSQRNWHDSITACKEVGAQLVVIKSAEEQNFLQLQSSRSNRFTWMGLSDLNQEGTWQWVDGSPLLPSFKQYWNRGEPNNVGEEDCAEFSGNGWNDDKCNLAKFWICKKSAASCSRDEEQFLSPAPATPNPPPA
The series can be described thus: Plate-based horseradish peroxidase assay. It is filed as binding. The procedure:
(§1) chromatography. Purified protein was dialyzed against 25 mM HEPES, 150 mM NaCl, 10 mM CaCl2, pH 7.4, concentrated using a centrifugal spin filter, snap frozen and then stored at -80°C. […]
(§2) Plate-based horseradish peroxidase assay
(§3) General remarks. Unless stated otherwise, all reagents and buffers were obtained from Sigma Aldrich or Carl Roth. Measurements were done on a Enspire Multimode Plate Reader (PerkinElmer). GraphPad Prism was used for all data processing and analysis.
(§4) CaCl2 titration. 100 µg mL-1 DC-SIGN ECD were immobilized in immobilization buffer (25 mM HEPES, 150 mM NaCl, 25 mM CaCl 2, pH 7.4) overnight at 4°C on transparent Nunc Maxisorp 96-well plates (Thermo Fisher). Protein solution was removed, and plates were washed three times with immobilization buffer and then blocked for 2 hours at 4°C with blocking buffer (25 mM HEPES, 150 mM NaCl, 25 mM CaCl 2, 2% BSA, 0.01% Tween -20). Plates were washed twice with 25 mM HEPES, 150 mM NaCl, 5 mM EDTA, pH 7.4 and twice with 25 mM HEPES, 150 mM NaCl, pH 7.4 to remove residual Ca 2+. To titrate Ca2+, CaCl2 in 25 mM HEPES, 150 mM NaCl, pH 7.4 was serially diluted on the plate at a constant HRP concentration of 1 µg mL-1 and then incubated at RT for 2 hours. Following incubation, plates were washed three times with 25 mM HEPES, 150 mM NaCl, pH 7.4 and bound HRP was detected using a TMB substrate kit (Thermo Fisher) and 0.18 M H2SO4 according to manufacturer’s instructions. Absorption was […]
(§5) HRP titration. Immobilization and blocking were done as described above. After blocking, plates were washed three times with immobilization buffer. HRP in immobilization buffer was serially diluted on the plate at a constant concentration CaCl2 concentration of 25 mM and then incubated […]
(§6) at RT for 2 hours. Following incubation, plates were washed three times with immobilization buffer and HRP was detected as described above.
(§7) Immobilization and blocking were done as described above. After blocking, plates were washed three times with immobilization buffer. Mannose in immobilization buffer containing 1 µg mL-1 HRP was serially diluted on the plate and then incubated at RT for 2 hours.
(§8) Following incubation, plates were washed three times with immobilization buffer and HRP was detected as described above.
(§9) All conditions were measured in technical triplicates, averaged and normalized to the control well […]
(§10) IC50 and EC50 values and hill […]
(§11) slopes (nH) were obtained in a four-parameter fit according to equation (1).
(§12) Y = bottom + top − bottom (1)
(§13) With bottom and top representing the minimal and maximal response plateaus, respectively, Y as the observed response and X the logarithmic concentration of the ligand . […]
(§14) Biosynth. Spectra were processed in TopSpin 4.2.0 and data analysis was performed using CCPN Analysis 3.2.0 for 2D spectra and in MestreNova for 1D spectra.2 Further analysis was done using GraphPad Prism and in-house python scripts.

For a further series, the target named is T2, DC-SIGN ECD wildtype (Homo sapiens, UniProt Q9NNX6).
T2 construct: acids 64 -404 of DC -SIGN; made in house
T2 sequence (Q9NNX6 64-404): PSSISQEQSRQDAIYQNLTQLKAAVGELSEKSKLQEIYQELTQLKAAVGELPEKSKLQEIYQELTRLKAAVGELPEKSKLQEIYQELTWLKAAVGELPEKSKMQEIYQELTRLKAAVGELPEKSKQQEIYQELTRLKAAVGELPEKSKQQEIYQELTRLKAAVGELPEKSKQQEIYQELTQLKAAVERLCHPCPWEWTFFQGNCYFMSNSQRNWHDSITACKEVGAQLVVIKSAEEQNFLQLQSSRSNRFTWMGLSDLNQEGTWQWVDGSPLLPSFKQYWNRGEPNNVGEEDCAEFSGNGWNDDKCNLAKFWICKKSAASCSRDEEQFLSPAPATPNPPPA
The series can be described thus: Plate-based horseradish peroxidase assay. It is filed as binding. Conditions: saturating CaCl2 (25 mM), plate-immobilized ECD. The procedure:
as §1, §2, §3, §4, §5, §6, §7, §8, §9, §10, §11, §12, §13, §14

The target of the next series is T3, DC-SIGN ECD T314A (Homo sapiens, UniProt Q9NNX6, T314A).
T3 construct: acids 64 -404 of DC -SIGN; made in house
T3 sequence (Q9NNX6 64-404 T314A): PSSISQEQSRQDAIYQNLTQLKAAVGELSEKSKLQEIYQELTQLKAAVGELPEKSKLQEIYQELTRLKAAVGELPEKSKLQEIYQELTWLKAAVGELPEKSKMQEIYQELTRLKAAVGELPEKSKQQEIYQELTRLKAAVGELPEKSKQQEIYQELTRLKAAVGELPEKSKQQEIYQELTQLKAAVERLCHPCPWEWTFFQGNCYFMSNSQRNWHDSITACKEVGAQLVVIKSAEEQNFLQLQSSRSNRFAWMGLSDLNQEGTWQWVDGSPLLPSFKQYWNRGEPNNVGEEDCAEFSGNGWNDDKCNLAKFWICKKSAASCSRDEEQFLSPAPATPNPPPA
Nature of the series: Plate-based horseradish peroxidase assay. The format is binding.

Series [1] deals with the molecule itself. Nature of the series: dynamic light scattering; purified ECDs; tetrameric state judged from mannan affinity chromatography, DLS and DSF together.
Setting [2] is: HRP titration at saturating CaCl2.
Setting [3] is: saturating CaCl2 (25 mM), plate-immobilized ECD.

For horseradish peroxidase [HRP], on DC-SIGN ECD M270F (setting [2]), the “increased affinity compared to the wildtype” value was 10 fold. For the same molecule, the “EC50 (mean ± SD), HRP titration” value with DC-SIGN ECD M270F (setting [3]) is 0.2 ± 0.2 μg mL^–1; on DC-SIGN ECD wildtype, 1.8 ± 1.0 µg/mL; in the series with DC-SIGN ECD T314A (setting [3]) it was 8.6 ± 0.1 μg mL^–1. Moreover, the “decreased affinity compared to the wildtype” value at DC-SIGN ECD T314A (setting [2]) was 4 fold.

B1: DC-SIGN extracellular domain (ECD) M270F (receptor, UniProt Q9NNX6 59-404, looked up)
chain: QVSKVPSSISQEQSRQDAIYQNLTQLKAAVGELSEKSKLQEIYQELTQLKAAVGELPEKSKLQEIYQELTRLKAAVGELPEKSKLQEIYQELTWLKAAVGELPEKSKMQEIYQELTRLKAAVGELPEKSKQQEIYQELTRLKAAVGELPEKSKQQEIYQELTRLKAAVGELPEKSKQQEIYQELTQLKAAVERLCHPCPWEWTFFQGNCYFFSNSQRNWHDSITACKEVGAQLVVIKSAEEQNFLQLQSSRSNRFTWMGLSDLNQEGTWQWVDGSPLLPSFKQYWNRGEPNNVGEEDCAEFSGNGWNDDKCNLAKFWICKKSAASCSRDEEQFLSPAPATPNPPPA
notes: DC-SIGN (CD209), extracellular domain with the point mutation M270F
Consider B1, for which the “stoichiometry N” value in series [1] is 4.

B2: DC-SIGN extracellular domain (ECD) T314A (receptor, UniProt Q9NNX6 59-404, looked up)
chain: QVSKVPSSISQEQSRQDAIYQNLTQLKAAVGELSEKSKLQEIYQELTQLKAAVGELPEKSKLQEIYQELTRLKAAVGELPEKSKLQEIYQELTWLKAAVGELPEKSKMQEIYQELTRLKAAVGELPEKSKQQEIYQELTRLKAAVGELPEKSKQQEIYQELTRLKAAVGELPEKSKQQEIYQELTQLKAAVERLCHPCPWEWTFFQGNCYFMSNSQRNWHDSITACKEVGAQLVVIKSAEEQNFLQLQSSRSNRFAWMGLSDLNQEGTWQWVDGSPLLPSFKQYWNRGEPNNVGEEDCAEFSGNGWNDDKCNLAKFWICKKSAASCSRDEEQFLSPAPATPNPPPA
notes: DC-SIGN (CD209), extracellular domain with the point mutation T314A
With B2, in series [1], the “stoichiometry N” value worked out at 4.
